Changes are numbered by the printed parent chain. Numbers in names are those of the source.

The Kd is the constant that tells how readily two partners part at equilibrium. The low end stands for a tighter complex, the high end for a looser complex.

Data set [1] deals with T1, Avi-tagged NFR5 (residues 276-595, Avitag) (Lotus japonicus, biotinylated Avi tag implied by capture on streptavidin biosensors; site not given).
T1 construct: NFR5 intracellular domain (juxtamembrane, pseudokinase, C-terminal tail) with an N-terminal Avi tag, immobilised on streptavidin biosensors; also called NFR5 Avitag; AviTag NFR5
T1 chain: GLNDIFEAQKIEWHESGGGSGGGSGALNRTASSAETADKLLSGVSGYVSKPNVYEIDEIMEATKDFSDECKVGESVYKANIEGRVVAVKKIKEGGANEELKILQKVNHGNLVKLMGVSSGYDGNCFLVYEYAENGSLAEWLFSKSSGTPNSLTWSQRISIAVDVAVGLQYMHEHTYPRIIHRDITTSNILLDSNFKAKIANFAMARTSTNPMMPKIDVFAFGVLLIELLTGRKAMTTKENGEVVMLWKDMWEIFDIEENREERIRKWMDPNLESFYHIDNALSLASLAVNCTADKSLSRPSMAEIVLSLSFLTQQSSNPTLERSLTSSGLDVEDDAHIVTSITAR
Put plainly: BLI, Avi-tagged NFR5 on streptavidin biosensors, Nb200 5-0.08 µM, 1:1 association/dissociation fit. An excerpt: (§1) The x-axis indicates time in seconds. The y-axis indicates the wavelength shift in nm. […] The x-axis indicates time in seconds. The y-axis indicates the wavelength shift in nm. […] Blue dotted lines demarcate fractions with complex formation, labelled as P1. Elution of excess Nb200 is labelled as P2. The x-axis indicates volume through the column in mL. The y-axis indicates the UV₂₈₀ milli absorbance units (mAu). […] The first lane, “M”, contains a molecular weight ladder, labeled to the left of the gel picture with the respective kDa amount. Lane “Inp” contains a sample of the input. Lanes “P1” contain fractions from the P1 complex section of the purification. Lanes “P2” contain fractions from the P2 section of the purification with excess Nb200. The black horizontal line over lanes indicates fractions pooled. Arrows indicate the proteins of interest.
(§2) Streptavidin (SA) biosensors (kinetic quality, Molecular devices, FortéBio) were equilibrated in Binding buffer (50 mM Tris-HCl pH 8, 200 mM NαCl, 0.01% TWEEN® 20) before use. AviTag™ NFR5 in Binding buffer was immobilized on SA sensors until 0.1 nm using an Octet® RED96 (Molecular devices, ForteBio) at 25° C. […] Unspecific binding was measured to a biotin loaded SA sensor and was subtracted from the interaction datasets.
A general note: BLI is a label-free optical method that tracks binding on a fibre tip over time.

Data set [2] addresses T2, C-terminal tailless NFR5 (residues 276-563) (Lotus japonicus).
T2 construct: Construct used for the SEC complex and the crystal structure with Nb200 (PDB 8S79)
T2 chain: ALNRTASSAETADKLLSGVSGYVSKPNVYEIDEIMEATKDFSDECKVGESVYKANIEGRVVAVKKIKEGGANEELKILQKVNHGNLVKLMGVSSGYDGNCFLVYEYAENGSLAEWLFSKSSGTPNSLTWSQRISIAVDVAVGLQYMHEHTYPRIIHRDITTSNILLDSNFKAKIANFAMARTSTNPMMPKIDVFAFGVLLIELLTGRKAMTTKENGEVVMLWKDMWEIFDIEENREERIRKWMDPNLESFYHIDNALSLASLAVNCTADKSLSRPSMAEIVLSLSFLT
Put plainly: size exclusion chromatography of NFR5 (residues 276-563) mixed with an excess of Nb200, fractions analysed by SDS-PAGE (co-elution). For orientation: SEC sorts molecules by how far they enter the pores of the column.

In data set [3] the target is T1, Avi-tagged NFR5 (residues 276-595, …). The data set can be described thus: bio-layer interferometry; Avi-tagged NFR5 immobilised on streptavidin biosensors, Nb200 control in solution at 0.08-5 µM.
Text: as §1, §2

Data set [4] concerns the molecule itself. The data set can be described thus: dynamic light scattering, concentration series 1-6 mg/ml, self-interaction in solution. From the text: Diffusion coefficients/concentration plots were used to derive self-interaction parameters, kSI (also known as the diffusion interaction parameter kD), by linear regression in GraphPad prism 9 (Graphstats Technologies).
It was hypothesized that the exposed juxtamembrane motif could function as a hydrophobic interaction surface. […] The NFR5 pattern resembled the pattern formed by the well-known oligomer forms of Bovine Serum Albumin (FIG. 7B). Dynamic light scattering (DLS) was used to measure the in solution particle size dispersity of the NFR5 sample. […] To investigate whether this self-interaction was mediated by the juxtamembrane motif, two variants were generated with substitutions in either αA (L290E, L291E) or αA′ (V294E, Y297E, V298E) that were referred to as 2E (SEQ ID NO: 148) and 3E (SEQ ID NO: 149), respectively (FIG. 7A). It was hypothesized that the introduction of charged glutamates would abolish hydrophobic interactions engaged by the motif. […] A second DLS experiment was performed to compare the in solution self-interaction of wildtype NFR5 with 2E and 3E by measuring their self-interaction parameter (kSI) over a protein concentration series (FIGS. 7D-7F). […] Next an N-terminal Avi-tagged NFR5 was purified in order to immobilize the NFR5 intracellular domain on a streptavidin biosensor (FIGS. 4A-4D, 7G). The immobilized NFR5 was used in a bio-layer interferometry experiment to measure interaction to WT, 2E, and 3E variants (FIGS. 7H-7J).

The target in data set [5] is T1, Avi-tagged NFR5 (residues 276-595, …). The data set can be described thus: bio-layer interferometry; Avi-tagged NFR5 WT immobilised on streptavidin biosensors, NFR5 WT in solution at 0.07-3.6 mg/mL. The procedure: (§3) An Avi-tagged version of NFR5 WT (purple) was purified and immobilized on streptavidin biosensors (top box with four-pointed stars representing streptavidin). NFR5 loaded biosensors were assayed against NFR5 WT, 2E (SEQ ID NO: 148), and 3E (SEQ ID NO: 149). […] A clear concentration dependent interaction to NFR5 WT was measured. The x-axis indicates time in seconds; the y-axis indicates nm. […] No interaction was observed. The x-axis indicates time in seconds; the y-axis indicates nm.
(§4) Streptavidin (SA) biosensors (kinetic quality, Molecular devices, FortéBio) were equilibrated in Binding buffer (50 mM Tris-HCl pH 8, 200 mM NαCl, 0.01% TWEEN® 20) before use. AviTag™ NFR5 in Binding buffer was immobilized on SA sensors until 0.1 nm using an Octet® RED96 (Molecular devices, ForteBio) at 25° C. […] Unspecific binding was measured to a biotin loaded SA sensor and was subtracted from the interaction datasets. Data was processed and analyzed in FortéBio Data Analysis 7 (Molecular devices, ForteBio) and GraphPad prism 9 (Graphstats Technologies). […]

The target is the same in data set [6]. Put plainly: bio-layer interferometry; Avi-tagged NFR5 WT immobilised on streptavidin biosensors, NFR5 2E in solution at 0.07-3.6 mg/mL. The procedure: as §3, §4
Data set [7] shares this target. Put plainly: bio-layer interferometry; Avi-tagged NFR5 WT immobilised on streptavidin biosensors, NFR5 3E in solution at 0.07-3.6 mg/mL. On the procedure:
as §3, §4

B1: VHH Nb200 (VHH)
VHH: QVQLVESGGGSVQAGDSLRLSCTGPGRTDGPYVMGWFRQAPEKEREFVAAISRYGSGTYYADSVRGRFTISRDNVKNTVYLQMNSLKPEDTAIYYCNRVPPVLSWGQGTQVTVSS
notes: also called Nb2NFR5
Turning to B1, in data set [1], the dissociation constant (Kd) worked out at 0.174 µM. Further, the binding result in data set [2] is reported as “binds”.

B2: VHH Nb200 control (A51E Y60E V100E) (VHH)
VHH: B1 VHH with A50E, Y59E, V99E
notes: Negative control triple mutant of Nb200; VHHs were cloned with a C-terminal 6xHis tag; also called VHH Nb200 mutant; Nb200 A51E Y60E V100E
For B2, in data set [3], the binding result is “no binding (tested: 5 µM)”.

B3: NFR5 intracellular domain (residues 276-595) (receptor)
chain: ALNRTASSAETADKLLSGVSGYVSKPNVYEIDEIMEATKDFSDECKVGESVYKANIEGRVVAVKKIKEGGANEELKILQKVNHGNLVKLMGVSSGYDGNCFLVYEYAENGSLAEWLFSKSSGTPNSLTWSQRISIAVDVAVGLQYMHEHTYPRIIHRDITTSNILLDSNFKAKIANFAMARTSTNPMMPKIDVFAFGVLLIELLTGRKAMTTKENGEVVMLWKDMWEIFDIEENREERIRKWMDPNLESFYHIDNALSLASLAVNCTADKSLSRPSMAEIVLSLSFLTQQSSNPTLERSLTSSGLDVEDDAHIVTSITAR
notes: Expressed with an N-terminal thioredoxin-6xHis-TEV fusion tag that was removed by TEV protease before use; also called NFR5 WT
As for B3, the “self-interaction parameter kSI” value in data set [4] was -14.6 mL/g. Moreover, the binding result in data set [5] is on record as “binds”.

B4: NFR5 residues 276-595, L290E/L291E (2E) (receptor)
chain: B3 chain with L15E, L16E
notes: Mutation numbers follow full-length NFR5; also called NFR5 2E; alphaA 2E
For the molecule B4, in data set [4], the “self-interaction parameter kSI” value was -10.8 mL/g. For the same molecule, the binding result in data set [6] is listed as “no binding (tested: 3.6 mg/mL)”.

B5: NFR5 residues 276-595, V294E Y297E V298E (3E) (receptor)
chain: B3 chain with V19E, Y22E, V23E
notes: Mutation numbers follow full-length NFR5; also called NFR5 3E; alphaA' 3E
In the case of B5, in data set [4], the “self-interaction parameter kSI” value was -7.1 mL/g. Besides, in data set [7], the binding result is “no binding (tested: 3.6 mg/mL)”.

(Values after patent publication US20240344078A1 (AARHUS UNIVERSITET, published 2024).)
